# B1: myc-EGFP-Trim50 (full-length mouse Trim50), expressed in U2OS cells (natural protein)
# chain: MAWRLTVPELQDQLQCPICLEVFKEPLMLQCGHSYCKDCLDNLSQHLDSELCCPVCRQSVDCSSSPPNVSLARVIDALRLPGDIEPTVCVHHRNPLSLFCEKDQEFICGLCGLLGSHQHHRVTPVSTVYSRMKEELAGRISELKEEHRNVEEHIGKLVNNRTRIINESDVFSWVIRREFQELHHLVDEEKARCLEGLEGHTRGLVASLDMQLEQAQGTQERLAQAEQVLEQFGNESHHEFIRFHSVASRAEVQQARPLEGVFSPISFKPALHQADIKLTVWKRLFRKVLPAPASLKLDPATAHPLLELSKGNTVVHCGLLAQRRASQPERFDYSTCVLASKGFSWGRHYWEVVVGSKSDWRLGVIKGTASRKGKLNKSPEHGVWLIGLKEGRVYEAFGCPRLPLPVAGHPHRIGVYLHYEQGELTFFDADRPDDLRTLYTFQADFQGKLYPILDTCWHERGSNSLPMVLPPPSGPGHFTLGQV
# Molecular target: the molecule itself
# Experiment: cross-linking
protein,measurement,value
B1,stoichiometry N,3

# Reference: publication PMC2680067 (European journal of human genetics : EJHG, 2008)
